For assay [1], the target named is AQP4-IgG (rAb-53) with the Fc mutation K322A (human). The experiment in a line: BLI; Octet K2, 30°C; antibody (6 µg/ml) loaded on anti-human Fab-CH1 biosensors; mouse FcRn-b2m in solution; PBS pH 7.2 for dilution, association and dissociation. A general note: In BLI a coated tip is dipped into the sample, and binding shifts an interference pattern.
Assay [2] deals with AQP4-IgG (rAb-53) with the Fc mutation N297D (human). The description is as above.
Assay [3] has as its target AQP4-IgG (rAb-53) with the Fc mutation P331G (human). The description is as above.
In assay [4] the target is AQP4-IgG (rAb-53) with the Fc mutation D270A (human). Put plainly: BLI; Octet K2, 30°C; antibody (6 µg/ml) loaded on anti-human Fab-CH1 biosensors; mouse FcRn-b2m in solution, 2,000 to 0 nM; 100 mM sodium phosphate, 150 mM NaCl, 0.05% Tween-20, pH 6; 60 s association, 60 s dissociation.
Chain of AQP4-IgG (rAb-53) with the Fc mutation D270A (human) (heavy, as listed by the source, chain 1 of 2): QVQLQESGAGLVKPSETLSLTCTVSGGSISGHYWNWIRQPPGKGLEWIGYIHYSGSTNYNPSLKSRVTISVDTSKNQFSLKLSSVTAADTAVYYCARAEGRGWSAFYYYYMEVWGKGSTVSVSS
Chain of AQP4-IgG (rAb-53) with the Fc mutation D270A (human) (light, as listed by the source, chain 2 of 2): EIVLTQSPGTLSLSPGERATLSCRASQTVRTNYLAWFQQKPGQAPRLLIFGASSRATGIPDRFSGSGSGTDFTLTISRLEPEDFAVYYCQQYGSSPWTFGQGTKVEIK
Assay [5] has as its target AQP4-IgG (rAb-53) with the Fc mutation K322A (human). The assay is described as above.
Assay [6] has as its target AQP4-IgG (rAb-53) with the Fc mutation N297D (human). The assay is described as above.
The target in assay [7] is AQP4-IgG (rAb-53) with the Fc mutation P329A (human). Described as above.
Chain of AQP4-IgG (rAb-53) with the Fc mutation P329A (human) (heavy, as listed by the source, chain 1 of 2): as the sequence (heavy, as listed by the source, chain 1 of 2) above
Chain of AQP4-IgG (rAb-53) with the Fc mutation P329A (human) (light, as listed by the source, chain 2 of 2): as the sequence (light, as listed by the source, chain 2 of 2) above
Assay [8] concerns the target AQP4-IgG (rAb-53) with the Fc mutation P331G (human). Described as above.
For assay [9], the target named is human monoclonal AQP4-IgG (rAb-53), wild type (human). Described as above.
Chain of human monoclonal AQP4-IgG (rAb-53), wild type (human) (heavy, as listed by the source, chain 1 of 2): as the sequence (heavy, as listed by the source, chain 1 of 2) above
Chain of human monoclonal AQP4-IgG (rAb-53), wild type (human) (light, as listed by the source, chain 2 of 2): as the sequence (light, as listed by the source, chain 2 of 2) above
The target in assay [10] is isotype control antibody directed against measles virus (2B4-IgG) (human). The assay is described as above.

The values below come from publication PMC6053506.

Chain of AQP4-IgG (rAb-53) with the Fc mutation P331G (human) (heavy, as listed by the source, chain 1 of 2): as the sequence (heavy, as listed by the source, chain 1 of 2) above
Chain of AQP4-IgG (rAb-53) with the Fc mutation P331G (human) (light, as listed by the source, chain 2 of 2): as the sequence (light, as listed by the source, chain 2 of 2) above
Chain of AQP4-IgG (rAb-53) with the Fc mutation K322A (human) (heavy, as listed by the source, chain 1 of 2): as the sequence (heavy, as listed by the source, chain 1 of 2) above
Chain of AQP4-IgG (rAb-53) with the Fc mutation K322A (human) (light, as listed by the source, chain 2 of 2): as the sequence (light, as listed by the source, chain 2 of 2) above
Chain of AQP4-IgG (rAb-53) with the Fc mutation N297D (human) (heavy, as listed by the source, chain 1 of 2): as the sequence (heavy, as listed by the source, chain 1 of 2) above
Chain of AQP4-IgG (rAb-53) with the Fc mutation N297D (human) (light, as listed by the source, chain 2 of 2): as the sequence (light, as listed by the source, chain 2 of 2) above

Regarding “mouse FcRn-Beta-2 microglobulin heterodimer protein (from UniProt Q61559 22-297; P01887 21-119) (complex)”, the Req in assay [1] was 0.198; in assay [2], 0.136; in [3], 0.151; in [4], 0.43; in [5], 0.987; in [6], 1. For the same substance, the Req amounted to 1.16 in assay [7], 0.915 in assay [8], 0.851 in assay [9] and 0.76 in [10].
